The assay concerns the target IL-15RβγC. The assay can be described thus: cell-based or functional assay.

On to “ALT-803 (IL-15N72D:IL-15RαSu/Fc complex) (from UniProt Q13261 31-95) (Fc fusion)”, for which the EC50 of ALT-803 stimulated proliferation of IL-15RβγC-bearing cells amounted to 0.016 nM.

(Values after patent US20210188933A1.)
